Test results from patent US20240101635A1 (AKSTON BIOSCIENCES, published 2024).
Changes are numbered by the printed parent chain. Names and notes keep the numbering of the source.

B1: insulin-Fc fusion protein of SEQ ID NO: 52 (Fc fusion)
chain: FVNQHLCGSDLVEALALVCGERGFFYTDPTGGGPRRGIVEQCCHSICSLYQLENYCNGGGGAGGGGDCPKCPAPEMLGGPSVFIFPPKPKDTLLIARTPEVTCVVVDLDPEDPEVQISWFVDGKQMQTAKTQPREEQFNGTYRVVSVLPIGHQDWLKGKQFTCKVNNKALPSPIERTISKARGQAHQPSVYVLPPSREELSKNTVSLTCLIKDFFPPDIDVEWQSNGQQEPESKYRTTPPQLDEDGSYFLYSKLSVDKSRWQRGDTFICAVMHEALHNHYTQESLSHSPG
notes: Homodimer; HEK293, Protein A
B2: insulin-Fc fusion protein of SEQ ID NO: 64 (Fc fusion)
chain: B1 chain with N139K
notes: homodimer; also called cNg-K; cNg-NB139-K
B3: insulin-Fc fusion protein of SEQ ID NO: 114 (Fc fusion)
chain: FVNQHLCGSHLVEALALVCGERGFFYTDPAGGGPRRGIVEQCCASVCSLYQLEHYCGGGGAGGGGGEGPKCPVPEIPGAPSVFIFPPKPKDTLSISRTPEVTCLVVDLGPDDSNVQITWFVDNTEMHTAKTRPREEQFNSTYRVVSVLPILHQDWLKGKEFKCKVNSKSLPSAMERTISKAKGQPHEPQVYVLPPTQEELSENKVSVTCLIKGFHPPDIAVEWEITGQPEPENNYQTTPPQLDSDGTYFLYSRLSVDRSHWQRGNTYTCSVSHEALHSHHTQKSLTQSP
notes: homodimer
B4: insulin-Fc fusion protein of SEQ ID NO: 118 (Fc fusion)
chain: FVNQHLCGSHLVEALALVCGERGFFYTDPAGGGPRRGIVEQCCASVCSLYQLEHYCGGGGAGGGGDCPKCPPPEMLGGPSIFIFPPKPKDTLSISRTPEVTCLVVALGPDDSDVQITWFVDNTQVYTAKTSPREEQFSSTYRVVSVLPILHQDWLKGKEFKCKVNSKSLPSPIERTISKDKGQPHEPQVYVLPPAQEELSRNKVSVTCLIEGFYPSDIAVEWEITGQPEPENNYRTTPPQLDSDGTYFLYSRLSVDRSRWQRGNTYTCSVSHEALHSHHTQKSLTQSPG
notes: homodimer
B5: insulin-Fc fusion protein of SEQ ID NO: 116 (Fc fusion)
chain: FVNQHLCGSHLVEALALVCGERGFFYTDPAGGGPRRGIVEQCCASVCSLYQLEHYCGGGGAGGGGGEGPKCPVPEIPGAPSVFIFPPKPKDTLSISRTPEVTCLVVDLGPDDSNVQITWFVDNTEMHTAKTRPREEQFSSTYRVVSVLPILHQDWLKGKEFKCKVNSKSLPSAMERTISKAKGQPHEPQVYVLPPTQEELSENKVSVTCLIKGFHPPDIAVEWEITGQPEPENNYQTTPPQLDSDGTYFLYSRLSVDRSHWQRGNTYTCSVSHEALHSHHTQKSLTQSPG
notes: homodimer
B6: insulin-Fc fusion protein of SEQ ID NO: 56 (Fc fusion)
chain: FVNQHLCGSDLVEALALVCGERGFFYTDPTGGGPRRGIVEQCCHSICSLYQLENYCNGGGGAGGGGCISPCPVPESLGGPSVFIFPPKPKDILRITRTPEITCVVLDLGREDPEVQISWFVDGKEVHTAKTQPREQQFNSTYRVVSVLPIEHQDWLTGKEFKCRVNHIGLPSPIERTISKARGQAHQPSVYVLPPSPKELSSSDTVTLTCLIKDFFPPEIDVEWQSNGQPEPESKYHTTAPQLDEDGSYFLYSKLSVDKSRWQQGDTFTCAVMHEALQNHYTDLSLSHSPG
notes: only 12% homodimer (aggregated)
B7: insulin-Fc fusion protein of SEQ ID NO: 36 (Fc fusion)
chain: FVNQHLCGSHLVEALALVCGERGFHYGGGGGGSGGGGGIVEQCCTSTCSLDQLENYCGGGGGQGGGGQGGGGQGGGGGDCPKCPAPEMLGGPSVFIFPPKPKDTLLIARTPEVTCVVVDLDPEDPEVQISWFVDGKQMQTAKTQPREEQFSGTYRVVSVLPIGHQDWLKGKQFTCKVNNKALPSPIERTISKARGQAHQPSVYVLPPSREELSKNTVSLTCLIKDFFPPDIDVEWQSNGQQEPESKYRTTPPQLDEDGSYFLYSKLSVDKSRWQRGDTFICAVMHEALHNHYTQESLSHSPG
notes: homodimer; also called cNg-S and B16A
B8: insulin-Fc fusion protein of SEQ ID NO: 104 (Fc fusion)
chain: B7 chain with A16E
notes: 71% homodimer; also called cNg-NB151-S
B9: insulin-Fc fusion protein of SEQ ID NO: 102 (Fc fusion)
chain: B7 chain with A16E, D119A
notes: 73% homodimer; also called cNg-NB151-S, NB119-A
B10: insulin-Fc fusion protein of SEQ ID NO: 96 (Fc fusion)
chain: FVNQHLCGSHLVEALELVCGERGFHYGGGGGGSGGGGGIVEQCCTSTCSLDQLENYCGGGGGQGGGGQGGGGQGGGGGRCTDTPPCPVPEPLGGPSVLIFPPKPKDILRITRTPEVTCVVLDLGREDPEVQISWFVDGKEVHTAKTQSREQQFNGTYRVVSVLPIEHQDWLTGKEFKCRVNHIDLPSPIERTISKARGRAHKPSVYVLPPSPKELSSSDTVSITCLIKDFYPPDIDVEWQSNGQQEPERKHRMTPPQLDEDGSYFLYSKLSVDKSRWQQGDPFTCAVMHETLQNHYTDLSLSHSPG
notes: purified on Protein A or Protein G

biological target: T1, biotinylated recombinant human Fc(gamma) receptor I (human, UniProt P12314 16-288, biotinylated (site not stated)); test: ELISA, fusion protein coated, biotinylated rhFc(gamma)RI in solution, pH 7.4
T1 construct: Bought reagent, used as surrogate for canine/feline Fc(gamma)RI; also called rhFc(gamma) receptor I; Fc(gamma)RI
Experimental: (§1) The binding of insulin-Fc fusion proteins to the Fc(gamma) receptor I at pH 7.4 was conducted using an ELISA assay as follows. Since neither canine nor feline Fc(gamma) receptor I was not commercially available, human Fc(gamma) receptor I (i.e., rhFc(gamma) receptor I) was used as a surrogate mammalian receptor. Insulin-Fc compounds were diluted to 10 μg/mL in sodium bicarbonate buffer at pH 9.6 and coated on Maxisorp (Nunc) microtiter plates overnight at 4° C., after which the microplate strips were washed 5 times with PBST (PBS/0.05% Tween-20) buffer and blocked with Superblock blocking reagent (ThermoFisher). Serial dilutions of biotinylated rhFc(gamma) receptor I (recombinant human Fc(gamma)R-I; R&D Systems) were prepared in PBST/10% Superblock buffer from 6000 ng/mL to 8.2 ng/mL and loaded at 100 μL/well onto the microplate strips coated with insulin-Fc fusion protein. The microtiter plate was incubated for 1 hour at room temperature after which the microplate strips were washed 5 times with PBST and then loaded with 100 μL/well of streptavidin-HRP diluted 1:10000 in PBST/10% Superblock buffer. After incubating for 45 min, the microplate strips were washed again 5 times with PBST. TMB was added to reveal the bound Fc(gamma) receptor I proteins and stopped with ELISA stop reagent (Boston Bioproducts). The plate was read in an ELISA plate reader at 450 nm, and the OD values (proportional to the binding of rhFc(gamma) receptor I to insulin-Fc protein) were plotted against log concentrations of rhFc(gamma) receptor I added to each well to generate binding curves using GraphPad Prism software.
Low Fc(gamma) receptor binding is most likely to correlate with minimum immunogenicity.

T1 sequence (P12314 16-288 limits assumed): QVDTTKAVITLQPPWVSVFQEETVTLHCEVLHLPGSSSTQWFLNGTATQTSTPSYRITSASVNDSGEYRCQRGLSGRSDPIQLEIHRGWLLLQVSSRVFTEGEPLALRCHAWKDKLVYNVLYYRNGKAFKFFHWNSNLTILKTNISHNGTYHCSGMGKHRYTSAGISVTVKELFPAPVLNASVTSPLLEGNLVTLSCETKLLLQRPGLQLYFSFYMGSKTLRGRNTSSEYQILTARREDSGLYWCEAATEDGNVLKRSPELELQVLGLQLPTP

Binder | OD450 nm Minus Assay Background [OD450] | Ratio to SEQ ID NO: 52 [ratio]
B1 | 0.323 | 1
B2 | – | 0.2

biological target: T2, human insulin receptor (human, UniProt P06213 28-1382); test: competition with biotinylated RHI on IM-9 cells, flow cytometry, 4 C
T2 construct: whole, on cells; Endogenous receptor on IM-9 cells; also called IR
Experimental: 40 μL of an IM-9 cell suspension (8×10⁶ cells/mL) was then added to each well by multichannel pipette, mixed again gently and incubated on ice for 30 min to allow competitive binding on the insulin receptor on IM-9 cells. Cells were then washed twice with 275 μL of ice-cold FACS wash buffer (HBSS/2 mM EDTA/0.1% Na-azide+0.5% horse serum) by centrifuging the V-bottom plate at 3000 rpm for 3 min and aspirating the supernatant. Cells were then resuspended in 40 μL of FACS staining medium containing 1:100 diluted Streptavidin-PE (Life Technologies) for 20 min on ice. Cells were then washed once with 275 μL of ice-cold FACS buffer and finally fixed with 3% paraformaldehyde for 10 min at room temp. Cells were then washed once with 275 μL of ice-cold FACS buffer and resuspended in 250 μl of FACS buffer for analysis.
The V-bottom plates containing cells were then analyzed on a Guava 8-HT flow cytometer (Millipore). Biotinylated-RHI binding to insulin receptor was quantitated by the median fluorescence intensity (MFI) of the cells on the FACS FL-2 channel for each concentration of the test compound. Control wells were labeled only with biotinylated-RHI and were used to calculate the percent (%) inhibition resulting from each test compound concentration. The % inhibition by test compounds of biotinylated-RHI binding on IM-9 cells was plotted against log concentrations of the test compound, and the resulting IC50 values were calculated using GraphPad Prism (GraphPad Software, La Jolla, CA) for the test compounds. Lower IC50 values of the test compound therefore indicate greater levels of biotinylated-RHI inhibition at lower concentrations indicating stronger binding of the insulin-Fc fusion protein to the insulin receptor. A control compound, such as unlabeled recombinant human insulin (RHI) was also used as an internal standard to generate an RHI IC50 against which a given compound IC50 could be ratioed (IC50(compound)/IC50(RHI)). Lower IC50 ratios have more similar binding to RHI (stronger binding to insulin receptor), while higher IC50 ratios have weaker binding to the insulin receptor relative to RHI.

T2 sequence (P06213 28-1382): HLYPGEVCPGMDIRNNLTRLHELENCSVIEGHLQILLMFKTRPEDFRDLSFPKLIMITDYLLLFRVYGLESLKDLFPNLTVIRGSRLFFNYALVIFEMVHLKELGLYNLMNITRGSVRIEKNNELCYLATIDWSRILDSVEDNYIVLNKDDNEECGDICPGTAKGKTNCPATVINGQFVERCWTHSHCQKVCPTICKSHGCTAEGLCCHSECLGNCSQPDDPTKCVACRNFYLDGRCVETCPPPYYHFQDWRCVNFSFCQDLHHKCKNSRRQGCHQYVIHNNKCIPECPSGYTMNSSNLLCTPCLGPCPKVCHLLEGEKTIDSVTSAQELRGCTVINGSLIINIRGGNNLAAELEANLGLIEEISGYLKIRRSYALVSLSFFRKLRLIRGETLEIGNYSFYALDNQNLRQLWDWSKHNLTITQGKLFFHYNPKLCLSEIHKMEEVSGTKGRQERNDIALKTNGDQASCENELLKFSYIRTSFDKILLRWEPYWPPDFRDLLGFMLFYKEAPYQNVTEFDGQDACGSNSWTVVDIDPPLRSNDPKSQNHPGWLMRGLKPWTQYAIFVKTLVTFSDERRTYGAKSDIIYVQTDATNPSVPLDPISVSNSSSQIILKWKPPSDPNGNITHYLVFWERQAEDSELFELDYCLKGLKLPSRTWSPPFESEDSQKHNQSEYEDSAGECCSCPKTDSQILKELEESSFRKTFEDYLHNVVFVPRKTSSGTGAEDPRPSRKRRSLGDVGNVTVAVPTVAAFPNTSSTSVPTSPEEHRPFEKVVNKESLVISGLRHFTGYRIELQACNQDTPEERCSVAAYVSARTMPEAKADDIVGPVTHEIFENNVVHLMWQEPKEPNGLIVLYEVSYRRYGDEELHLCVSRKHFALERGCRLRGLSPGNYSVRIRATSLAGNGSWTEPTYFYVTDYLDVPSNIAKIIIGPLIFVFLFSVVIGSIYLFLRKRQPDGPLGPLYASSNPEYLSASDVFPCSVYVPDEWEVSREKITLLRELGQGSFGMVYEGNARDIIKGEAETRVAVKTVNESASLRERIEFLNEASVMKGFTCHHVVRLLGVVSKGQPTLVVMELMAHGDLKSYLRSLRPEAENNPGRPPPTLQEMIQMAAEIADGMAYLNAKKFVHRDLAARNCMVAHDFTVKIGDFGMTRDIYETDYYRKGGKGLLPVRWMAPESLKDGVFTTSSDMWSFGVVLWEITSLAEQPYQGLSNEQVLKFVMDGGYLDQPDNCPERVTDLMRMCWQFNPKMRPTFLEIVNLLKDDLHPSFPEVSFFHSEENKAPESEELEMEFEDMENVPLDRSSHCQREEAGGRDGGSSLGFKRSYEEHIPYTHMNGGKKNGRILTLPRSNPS

Binder | IC50 [nM]
B1 | 28
B3 | 3480
B4 | > 5000
B5 | 707
B6 | > 5000

biological target: T1, biotinylated recombinant human …; test: ELISA, fusion protein coated, biotinylated rhFc(gamma)RI at 3000 ng/mL, pH 7.4
Experimental: as §1
Finally, select compounds were tested for their likelihood to interact with the immune system by measuring their Fc(gamma) receptor binding activity according to the procedure of Example 8. Table 19 compares the Fc(gamma) receptor I binding of these insulin-Fc fusion proteins with the Fc(gamma) receptor binding of the insulin-Fc fusion protein of SEQ ID NO: 52.

Binder | OD450 nm Minus Assay Background [OD450] | OD450 nm at a Fc(gamma)RI concentration of 3000 (ng/mL) [OD450] | Ratio to SEQ ID NO: 52 [ratio]
B1 | 0.371 | 0.428 | 1
B7 | – | 0.177 | 0.32
B8 | – | 0.175 | 0.32
B9 | – | 0.166 | 0.29
B10 | – | 0.253 | 0.53
